In article PMC5589798, “Alpha subunit-dependent glycine receptor clustering and regulation of synaptic receptor numbers” (Scientific Reports, 2017):

What was measured:
[1] = target: endogenous α subunits of spinal cord neurons; experiment: PALM-based single molecule counting; fixed lentivirus-infected spinal cord neurons; bursts of Dendra2 detections counted in 120 nm clusters in sparse areas of the extrasynaptic plasma membrane, binomial fit
[2] = target: the molecule itself; experiment: PALM-based single molecule counting; fixed COS-7 cells expressing mEos2-gephyrin; cluster diameter 150 nm, burst length < 60 s, binomial fit
[3] = target: T1, endogenous extrasynaptic GlyRs (labelled by QDs on endogenous GlyRα1) (mouse (endogenous in spinal cord …, UniProt Q64018 29-457; P48168 23-496); experiment: PALM-based single molecule counting at QD-labelled receptors; fixed mouse spinal cord neurons; endogenous GlyRα1 labelled with mAb2b and Fab'-QD605, mEos2-gephyrin bursts counted at the QD sites in the extrasynaptic membrane; details: partners not purified
T1 construct: endogenous glycine receptor beta subunit of mouse spinal cord neurons; the discussion calls extrasynaptic GlyRs α3:β2 heteromers; Only the α1 subunit was labelled; also called endogenous GlyRs; receptor complexes; source: endogenous, mouse spinal cord neurons, fixed cells; copies: 3 + 2

[4] = target: T2, untagged GlyRβ (UniProt P48167 23-497); experiment: PALM-based single molecule counting; fixed transfected COS-7 cells; bursts of Dendra2 detections counted in 120 nm clusters, binomial fit; Dendra2-GlyR subunits alone or with untagged subunits; details: partners not purified
T2 construct: glycine receptor beta subunit, untagged; also called untagged β subunits; non-fluorescent subunits; source: COS-7, transfected, in cells

[5] = target: T3, endogenous GlyRβ subunits of spinal cord neurons ( (endogenous in rat or mouse …, UniProt P20781 23-496)); experiment: PALM-based single molecule counting; fixed lentivirus-infected spinal cord neurons; bursts of Dendra2 detections counted in 120 nm clusters in sparse areas of the extrasynaptic plasma membrane, binomial fit; details: partners not purified
T3 construct: endogenous glycine receptor beta subunit of cultured spinal cord neurons; also called endogenous counterparts; source: endogenous, cultured spinal cord neurons, fixed cells
T3 sequence (P20781 23-496): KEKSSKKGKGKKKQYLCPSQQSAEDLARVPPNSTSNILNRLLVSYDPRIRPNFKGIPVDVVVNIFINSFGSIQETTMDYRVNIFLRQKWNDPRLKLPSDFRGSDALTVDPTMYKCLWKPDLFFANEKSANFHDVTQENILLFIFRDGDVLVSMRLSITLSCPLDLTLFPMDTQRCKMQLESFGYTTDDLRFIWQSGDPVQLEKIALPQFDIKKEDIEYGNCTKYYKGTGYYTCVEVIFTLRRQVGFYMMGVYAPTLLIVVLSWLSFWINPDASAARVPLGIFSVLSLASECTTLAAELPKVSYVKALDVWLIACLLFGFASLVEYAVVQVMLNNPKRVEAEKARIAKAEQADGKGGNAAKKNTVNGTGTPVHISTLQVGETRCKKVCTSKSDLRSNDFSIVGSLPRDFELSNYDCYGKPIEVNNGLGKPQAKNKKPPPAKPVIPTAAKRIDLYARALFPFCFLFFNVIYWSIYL

T1 sequence (P48168 23-496, one chain of several): as the sequence (P20781 23-496) above, with A23P counted along it
T2 sequence (P48167 23-497): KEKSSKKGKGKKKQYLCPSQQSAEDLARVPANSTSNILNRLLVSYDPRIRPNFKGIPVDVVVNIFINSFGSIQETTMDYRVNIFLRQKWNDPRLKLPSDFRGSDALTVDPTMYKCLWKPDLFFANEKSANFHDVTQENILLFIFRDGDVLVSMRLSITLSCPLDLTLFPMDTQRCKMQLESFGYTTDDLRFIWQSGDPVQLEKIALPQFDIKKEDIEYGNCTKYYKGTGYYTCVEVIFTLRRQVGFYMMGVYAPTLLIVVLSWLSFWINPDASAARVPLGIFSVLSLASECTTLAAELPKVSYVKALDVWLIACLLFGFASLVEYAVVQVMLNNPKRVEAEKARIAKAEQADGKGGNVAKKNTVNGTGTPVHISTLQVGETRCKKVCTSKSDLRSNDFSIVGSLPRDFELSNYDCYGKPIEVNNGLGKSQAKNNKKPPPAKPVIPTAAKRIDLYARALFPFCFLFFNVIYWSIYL

Dendra2-GlyRβ (FU-SP-myc-Dendra2-GlyRβ) (from UniProt P48167-1 23-497) (receptor)
stoichiometry N [1]: 1.5 α:β (3:2)

B1: mEos2-gephyrin (FU-mEos2-gephyrin) (natural protein, UniProt Q03555 1-768, looked up)
chain: MATEGMILTNHDHQIRVGVLTVSDSCFRNLAEDRSGINLKDLVQDPSLLGGTISAYKIVPDEIEEIKETLIDWCDEKELNLILTTGGTGFAPRDVTPEKFPTFPFCGLQKGATKEVIEREAPGMALAMLMGSLNVTPLGMLSRPVCGIRGKTLIINLPGSKKGSQECFQFILPALPHAIDLLRDAIVKVKEVHDELEDLPSPPPPLSPPPTTSPHKQTEDKGVQCEEEEEEKKDSGVASTEDSSSSHITAAALAAKIPDSIISRGVQVLPRDTASLSTTPSESPRAQATSRLSTASCPTPKQIRRPDESKGVASRVGSLKVQSRCSSKENILRASHSAVDITKVARRHRMSPFPLTSMDKAFITVLEMTPVLGTEIINYRDGMGRVLAQDVYAKDNLPPFPASVKDGYAVRAADGPGDRFIIGESQAGEQPTQTVMPGQVMRVTTGAPIPCGADAVVQVEDTELIRESDDGTEELEVRILVQARPGQDIRPIGHDIKRGECVLAKGTHMGPSEIGLLATVGVTEVEVNKFPVVAVMSTGNELLNPEDDLLPGKIRDSNRSTLLATIQEHGYPTINLGIVGDNPDDLLNALNEGISRADVIITSGGVSMGEKDYLKQVLDIDLHAQIHFGRVFMKPGLPTTFATLDIDGVRKIIFALPGNPVSAVVTCNLFVVPALRKMQGILDPRPTIIKARLSCDVKLDPRPEYHRCILTWHHQEPLPWAQSTGNQMSSRLMSMRSANGLLMLPPKTEQYVELHKGEVVDVMVIGRL
notes: gephyrin; neither species nor isoform is stated; In neurons, endogenous gephyrin is also present and dilutes the detected mEos2-gephyrin; source: COS-7, transfected, in cells; spinal cord neurons, lentivirus infected, in cells
stoichiometry N [2]: 3 | stoichiometry N [3]: 1 gephyrin trimer per receptor complex

B2: Dendra2-GlyRα3 (FU-SP-myc-Dendra2-GlyRα3L) (receptor, human, UniProt O75311-1 34-464, looked up)
chain: ARSRSAPMSPSDFLDKLMGRTSGYDARIRPNFKGPPVNVTCNIFINSFGSIAETTMDYRVNIFLRQKWNDPRLAYSEYPDDSLDLDPSMLDSIWKPDLFFANEKGANFHEVTTDNKLLRIFKNGNVLYSIRLTLTLSCPMDLKNFPMDVQTCIMQLESFGYTMNDLIFEWQDEAPVQVAEGLTLPQFLLKEEKDLRYCTKHYNTGKFTCIEVRFHLERQMGYYLIQMYIPSLLIVILSWVSFWINMDAAPARVALGITTVLTMTTQSSGSRASLPKVSYVKAIDIWMAVCLLFVFSALLEYAAVNFVSRQHKELLRFRRKRKNKTEAFALEKFYRFSDMDDEVRESRFSFTAYGMGPCLQAKDGMTPKGPNHPVQVMPKSPDEMRKVFIDRAKKIDTISRACFPLAFLIFNIFYWVIYKILRHEDIHQQQD
notes: human glycine receptor alpha-3 subunit, long isoform (α3L); Five copies hold for the homomeric receptor (expressed alone in COS-7); also called homomeric Dendra2-GlyRα3; source: COS-7, transfected (FuGENE 6), in cells; spinal cord neurons, lentivirus infected, in cells; not shown: myc, N-terminal, kept; Dendra2, N-terminal, kept
stoichiometry N [4]: 3 α3 subunits per complex | stoichiometry N [5]: 1.5 α:β (3:2)

B3: Dendra2-GlyRα1 (FU-SP-myc-Dendra2-GlyRα1) (receptor, rat, UniProt P07727-1 29-457, looked up)
chain: ARSAPKPMSPSDFLDKLMGRTSGYDARIRPNFKGPPVNVSCNIFINSFGSIAETTMDYRVNIFLRQQWNDPRLAYNEYPDDSLDLDPSMLDSIWKPDLFFANEKGAHFHEITTDNKLLRISRNGNVLYSIRITLTLACPMDLKNFPMDVQTCIMQLESFGYTMNDLIFEWQEQGAVQVADGLTLPQFILKEEKDLRYCTKHYNTGKFTCIEARFHLERQMGYYLIQMYIPSLLIVILSWISFWINMDAAPARVGLGITTVLTMTTQSSGSRASLPKVSYVKAIDIWMAVCLLFVFSALLEYAAVNFVSRQHKELLRFRRKRRHHKSPMLNLFQDDEGGEGRFNFSAYGMGPACLQAKDGISVKGANNNNTTNPAPAPSKSPEEMRKLFIQRAKKIDKISRIGFPMAFLIFNMFYWIIYKIVRREDVHNK
notes: rat glycine receptor alpha-1 subunit, isoform a; Five copies hold for the homomeric receptor (expressed alone in COS-7); also called homomeric Dendra2-GlyRα1; source: COS-7, transfected (FuGENE 6), in cells; spinal cord neurons, lentivirus infected, in cells; not shown: myc, N-terminal, kept; Dendra2, N-terminal, kept
stoichiometry N [5]: 1.5 α:β (3:2)
